In patent US20240327502A1 (Merck Sharp & Dohme, published 2024):

Experiments:
[1] = biological target: T1, Processed stabilized hMPV PreF trimer (115BV) (human metapneumovirus, strain B2); experiment: BLI, mAb on anti-human Fc sensor
T1 construct: also called Processed hMPV PreF trimer; processed PreF

hMPV PostF trimer = biological target: T2, hMPV PostF trimer (human metapneumovirus, strain B2); experiment: BLI, mAb on anti-human Fc sensor
T2 construct: also called MPV PostF (dPFv1)

[2] = biological target: T3, Unprocessed hMPV PreF trimer (human metapneumovirus, strain B2); experiment: BLI, mAb on anti-human Fc sensor
T3 construct: also called Unprocessed hMPV WT PreF trimer; unprocessed hMPV PreF trimeric antigen

[3] = biological target: T1, Processed stabilized hMPV PreF trimer …; experiment: BLI, ratio to unprocessed PreF trimer

B1: M2E04 (antibody, V domains shown)
VH: QVQLQESGPGLVKPSEILSLTCTVSRFSINSGYYWGWIRQPPGKGLEWIGCISHAGSIYSNPSLESRVTLSLDTSKNQFSLKLTSVIAADTATYYCAASSNWHNALEYWGQGTLVVVSS
VL: QSVLTQPPSASGTPGQTVTISCSGSRSNMGINWVYWYQQLPGTAPKLVIYRNSQRPSGVPDRFSGSQSGTSASLAISGLRSEDEAVYYCAVWDDSLDGRLFGGGTKLTVL
notes: IgG
Octet binding response [1]: 0.199 nm | Octet binding response (hMPV PostF trimer): 0.0702 nm | Octet binding response [2]: 0.391 nm | processed/unprocessed PreF trimer binding ratio [3]: 0.51

B2: M2E05 (antibody, V domains shown)
VH: QVQLQESGPGLVKPSEILSLTCTVSRYSINSGYYWGWIRQPPGKGLEWVGCVSHAGVTYYNPSLESRVAVSLDTSKNQFSLKMTSVSAADTAMYYCAASSNWHNALEYWGQGTLVAVSS
VL: QSVLTQPPSASGTPGQSVTISCSGSSSNMGINWVYWYQQLPGTAPKLLIYRNSQRPSGVPDRFSGSQSGTSASLAISGLRSEDEGHYYCAVWDDVVSGRLFGGGTKLTVL
notes: IgG
Octet binding response [1]: 0.228 nm | Octet binding response (hMPV PostF trimer): 0.0401 nm | Octet binding response [2]: 0.426 nm | processed/unprocessed PreF trimer binding ratio [3]: 0.54

B3: M2E01 (antibody, V domains shown)
VH: QLQLQESGPGLVKPSETLSLTCTVSGGSISSSTYYWGWIRQPPGKGLEWIGTIYYSGSTDYNPSLKSRLTISVDTSKNQFSLRLRSVTAADTAVYYCARLVSPYDQFDYWGQGTLVTVSS
VL: DIQMTQSPSSLSASVGDRVTITCRASQTITTYLSWYLQKPGKAPKLLIYAASSWQSGVPSRFSGSGSGTDFTLTISSLQPEDFATYYCQQSYSTPYTFGQGTKLEIK
notes: IgG
Octet binding response [1]: 0.126 nm | Octet binding response (hMPV PostF trimer): -0.016 nm | Octet binding response [2]: 0.408 nm | processed/unprocessed PreF trimer binding ratio [3]: 0.31

B4: M3B04 (antibody, V domains shown)
VH: QVQLQESGPGLVKPSETVSLTCTVSGGSISSNNWWSWVRQSPGKGLEWIGEIYHSGSTNFNPSLKSRVTISVDKSKNHFSLKLGSLTAADTAVYYCARRPNDYGDYSYYYYYYMDVWGKGTTVTVSS
VL: EIVLTQSPATLSLSPGESATLSCRASQSINRNLAWYQQKPGQAPRLLIYDASNRATGIPARFSGSGSGTDFTLTISSLEPEDFAVYYCQQRSHWVTFGQGTRLEIK
notes: IgG
Octet binding response [1]: 0.0297 nm | Octet binding response (hMPV PostF trimer): 0.446 nm | Octet binding response [2]: 0.177 nm | processed/unprocessed PreF trimer binding ratio [3]: 0.17

B5: M3E09 (antibody, V domains shown)
VH: EVQLVESGGGVVRPGGSLRLSCAASGFRFDDYAMNWVRQAPGKGLEWVSGINWIGGTTKYADSVKGRFTISRDNTKNSLYLQMNSLRAEDTALYYCARGVGYYYYYMDVWGRGTTVTVSS
VL: EIVLTQSPGTLSLSPGERATLSCRATQSVSSNYLAWYQQKPGQAPRLLIYDASSRAIGIPDRFSGSGSGTDFTLTISRLESEDFAVYYCQQYGSSPETFGQGTKVEIK
notes: IgG
Octet binding response [1]: 0.0948 nm | Octet binding response (hMPV PostF trimer): -0.0506 nm | Octet binding response [2]: 0.226 nm | processed/unprocessed PreF trimer binding ratio [3]: 0.42

B6: M2E11L (antibody, V domains shown)
VH: QVQLVQSGAIMKKPGSSVKVSCKASGGTFTNFAFSWVRQAPGQGLEWMGGIIPFVGPANYAPQFQGRVTITADESTTTAYMELNSLRSEDTAVYYCARVRGFGETAYFYHYYMDVWGKGTTVTVSS
VL: QTVVTQEPSLSVSPGGTVTLTCGLSSGSVSTSHFPSWYQQIPGQPPRTLIYSTITRSSGVPDRFSGSILGNKATLTITGAQADDECDYYCVLYLGGGIPHWVFGGGTKLTVL
Octet binding response [1]: 0.162 nm | Octet binding response (hMPV PostF trimer): 0.0538 nm | Octet binding response [2]: 0.332 nm | processed/unprocessed PreF trimer binding ratio [3]: 0.49

B7: M3A12 (antibody, V domains shown)
VH: QVQLQESGPQLVKPSQTLSLTCTVSGDSISSSDYCWSWIRQSPGKGLEWIGHSVYSGDTQYNPSLKSRLSISVDTSKNQFSLRLRSVTAADTAVYYCARGNDFWSGSFDYWGQGALVIVSS
VL: DIQMTQSPSSLSASVGDRVTITCRASQSIGTYLNWYQQKPGKAPKVLIYAASSLQSGVPSRFSGRGSGTDFTLTVSSLQPEDFASYYCQQSYTKPYTFGQGTKLEIK
notes: IgG
Octet binding response [1]: 0.0766 nm | Octet binding response (hMPV PostF trimer): 0.0469 nm | Octet binding response [2]: 0.31 nm | processed/unprocessed PreF trimer binding ratio [3]: 0.25

B8: M3D03 (antibody, V domains shown)
VH: QVQLVQSGAEVKKPGASVKVSCKASGYTFTSYGISWVRQAPGQGLEWMGWISAYNGNTNYAQKLQGRVTMTTDTSTSTAYMELRSLRSDDTAVYYCARDAPFGRDDGYGMDVWGQGTTVTVSS
VL: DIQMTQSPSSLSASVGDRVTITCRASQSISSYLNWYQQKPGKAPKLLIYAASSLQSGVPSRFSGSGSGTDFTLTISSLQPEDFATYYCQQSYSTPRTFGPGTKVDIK
notes: IgG
Octet binding response [1]: 0.0286 nm | Octet binding response (hMPV PostF trimer): -0.054 nm | Octet binding response [2]: 0.242 nm | processed/unprocessed PreF trimer binding ratio [3]: 0.12

B9: M3A03 (antibody, V domains shown)
VH: QVQLVQSGAEVKKPGASVKVSCKASAYTFTSYGITWVRQAPGQGLEWMGWISAYRGNTKYAQKLQGRVTMTTDTSTSTASMELRSLRSDDTAVYYCARTSYYDSSYYPIDYWGQGTLVTVSS
VL: SYVLTQPPSVSVAPGQTARITCGGNNIGSKSVQWYQQKPGQAPVLVVYDDSDRPSGIPERFSGSNSGNTATLTISRVEAGDEADYYCQVWDSSGDRVVFGGGTKLTVL
notes: IgG
Octet binding response [1]: 0.0409 nm | Octet binding response (hMPV PostF trimer): 0.568 nm | Octet binding response [2]: 0.181 nm | processed/unprocessed PreF trimer binding ratio [3]: 0.23

B10: M2E07 (antibody, V domains shown)
VH: EVQLVESGGGLVQTGGSLRLACAASGFTFSSYAMSWVRQAPGKGLEWVSTITESGDDAYYADSVKGRLTISRDNSKNTLFLHLNGLRSEDTARYYCAKDMGLYKSSWYGNFFYYYYMDVWGEGTTVTVSS
VL: QSALTQPASVSGSPGQSITISCTGSSSNIGSFDLISWYQQHPGKAPKFIIYEGDKRPSGVSYRFSGSKSGSTASLTISGLQAEDEAYYYCCSYARSRTLVFGGGTKVTVL
notes: IgG
Octet binding response [1]: 0.0476 nm | Octet binding response (hMPV PostF trimer): 0.0137 nm | Octet binding response [2]: 0.216 nm | processed/unprocessed PreF trimer binding ratio [3]: 0.22

B11: M3B12 (antibody, V domains shown)
VH: QVQLVESGGGVVQPGGSLRLSCAASGFTFSSYGMHWVRQAPGKGLEWVAFIRYDGSNKYYADSVKGRFTISRDNSKNTLYLQMNSLRAEDTAVYYCAKDSGSYYYYYYMDVWGKGTTVTVSS
VL: not shown
notes: IgG
Octet binding response [1]: 0.0102 nm | Octet binding response (hMPV PostF trimer): 0.417 nm | Octet binding response [2]: 0.157 nm | processed/unprocessed PreF trimer binding ratio [3]: 0.07

B12: M2D02 (antibody, V domains shown)
VH: QVQLVQSGAEVKKPGSSVKVSCKASGGTLTRYTISWVRQAPGQGLEWMGRIIPFLDIANYAPRFQGRVTMTADKSTSTAYMELSSLTSQDTAIYYCARDHSGNYFDLWGQGTLVTVSS
VL: EIVMTQSPATLSVSPGERATLSCRASQSVTSNLAWYQRKPGQAPRLLIYGASTGATDIPGRFSGSGSGTEFTLTISGLQSEDFAVYYCQQYDHWPRTFGQGTKVEIK
notes: IgG
Octet binding response [1]: 0.0468 nm | Octet binding response (hMPV PostF trimer): 0.541 nm | Octet binding response [2]: 0.216 nm | processed/unprocessed PreF trimer binding ratio [3]: 0.22

B13: M2E08 (antibody, V domains shown)
VH: EVQLVESGGDLVLPGGSLRLSCEASGFMFSSYAMNWVRQAPGKGLERVSGISGSGGNTYYADSVKGRFTISRDNSKNIVYLQMNSLRAEDTAVYYCAKDLGNDYFYYIDVWGKGTTVMVSS
VL: QSVLTQPPSVSGAPGQRVTISCTGTNFNIGAGYDVQWYQQLPGAAPKLLIHGNTYRPSGVPDRFSGSKSGTSASLAITGLQAEDEADYYCQSYDSSLSMVFGGGTKLTVL
notes: IgG
Octet binding response [1]: 0.0781 nm | Octet binding response (hMPV PostF trimer): -0.0233 nm | Octet binding response [2]: 0.349 nm | processed/unprocessed PreF trimer binding ratio [3]: 0.22

B14: M1A11 (antibody, V domains shown)
VH: QLQLQESGPGLVKPSETLSLTCTVSGDSISSSSFYWGWIRQPPGKGLEWIATIYYTGSTEYNPSLKSRISISVDTSMNQFSLRLRSVTAADTAVYYCARQEGSSWSNWFDPWGQGTLVTVSS
VL: DIQMTQSPSSLSASVGDRVTITCRASQSISTYLNWYQQKPGKAPKLLIYVASSLQSGVPSRFSGSGSGTDFTLTISSLQPEDFATYYCQQGYSIPWTFGHGTKVEIK
notes: IgG; also called MIA11
Octet binding response [1]: 0.0515 nm | Octet binding response (hMPV PostF trimer): 0.0143 nm | Octet binding response [2]: 0.342 nm | processed/unprocessed PreF trimer binding ratio [3]: 0.15

B15: M3A04 (antibody, V domains shown)
VH: QVQLVESGGGVVQPGRSLRLSCAASGLTFSTYVMHWVRQAPGKGLEWVAVISYDGTNEHYADSVKGRFTISRDNSKNTLYLQMNSLRPEDTAVYYCARGTADYDVWSGSAWGGFDYWGQGTLVTVSS
VL: DIQMTQSPSSLSASVGDRVTITCRASQSISSYLNWYQQKPGKAPKLLMYTVSSLPSGVPSRFSGSGSGTDFTLTISSLQPEDFATYYCQQSYNIPYTFGQGTKLEIK
notes: IgG
Octet binding response [1]: 0.0846 nm | Octet binding response (hMPV PostF trimer): -0.0261 nm | Octet binding response [2]: 0.373 nm | processed/unprocessed PreF trimer binding ratio [3]: 0.23

B16: M2B04 (antibody, V domains shown)
VH: QVQLVQSGPEVKKPGASVKVSCKASGYSITTYGIDWVRQAPGQGLEWIGWSSAHTGNTNYAEKFQGRVTMTTDTSTYTTYMELRSLKSDDTAVYYCAMGAYTSSRNWFDPWGQGTLVIVSS
VL: EIVLTQSPATLSLSPGERATLSCRASQNINNFLAWYQQKAGQAPRLLIYDASNRATGIPGRFSGSGSGTDFTLTISSLEPEDFAVYYCQQRANWPLTFGGGTKVEVK
notes: IgG
Octet binding response [1]: 0.125 nm | Octet binding response (hMPV PostF trimer): 0.0152 nm | Octet binding response [2]: 0.328 nm | processed/unprocessed PreF trimer binding ratio [3]: 0.38

B17: M2C10 (antibody, V domains shown)
VH: QVQLVESGGGVVQPGRSLRLSCAASGFTFNNYAMHWVRQAPGKGLEWVALISDDGSKKYFADALKGRFTIFRDNSKNTLYLQMNSLRAEDTAVYYCARDPTPLGEYYFDYWGQGTLVTVSS
VL: DIQMTQSPSSLSASVGDRVTITCRASQTISGYLNWYQQKPGKAPNLLIYTASSLESGVPSRFSGSGSETDFTLTISSLQPEDFATYYCQQSYRMPLTFGGGTRVSLK
notes: IgG
Octet binding response [1]: 0.0939 nm | Octet binding response (hMPV PostF trimer): -0.0261 nm | Octet binding response [2]: 0.382 nm | processed/unprocessed PreF trimer binding ratio [3]: 0.25
